Measurements published in patent publication US20240043505A1 (UNIVERSITY OF PITTSBURGH OF THE COMMONWEALTH SYSTEM OF …, published 2024).

Target: SARS-CoV-2 spike receptor-binding domain (RBD) (SARS-CoV-2, UniProt P0DTC2 319-541)
Assay: indirect ELISA, RBD coated on plate, 4PL fit

B1: Nb42 (VHH)
VHH: HVQLVESGGGLVQAGESLRLSCVASGSIFSINAMGWFRQAPGKQRELVASISNIGTTIYAESVKGRFTISRDNAKNTADLQMNSLKPEDTAIYYCNLRQGCSYNGCDEYWGQGTQVTVSS
Q: How did the ELISA affinity turn out when B1 was run?
A: 0.66 nM

B2: Nb63 (VHH)
VHH: QVQLVESGGGLVQAGGSLRLSCVASGSGFEPNAMGWYRQAPGKQRELVAGITSGGNANYADSVKGRFTISRDNVKNTVYLQMNSLKPEDTAVYYCQGPACSGSGCRNYWGQGTQVTVSS
Q: B2 was tested. Which ELISA affinity did it give?
A: 0.84 nM

B3: Nb15 (VHH)
VHH: EVQLVESGGGLVAAGGSLRLSCVPSTNIFSANAMGWYRQAPGKQRELVASITSGGNTNYADSVKGRFTISRDNADTVILQMNSLKPEDTAVYYCKGTAYSTTYNSVRDYWGQGTQVTVSS
Q: With B3 as the binder, how does the ELISA affinity read?
A: 0.47 nM

B4: Nb62 (VHH)
VHH: HVQLVESGGGLVQAGGSLRLTCAASGRTFSSSTMDMGWFRQAPGKEREFVAVDAWNDGRTYYADSVKGRFTISRDNAKNTLYLQMNSLKPGDTAVYYCHAVDVSVGGDYWGQGTQVTVSS
Q: Which ELISA affinity does the source give for B4 here?
A: 85.7 nM

B5: Nb90 (VHH)
VHH: HVQLVESGGGLVQAGGSLRLSCAVSGRTVSSYVMGWFRQAPGKEREFVAGIGRTGMTITADSVKGRFTISRDNAKNLVYLQMNSLKSEDTAVYWCAAGVRDFAPRIDSYDYWGQGTQVTVSS
Q: How did the ELISA affinity turn out when B5 was run?
A: 4.03 nM

B6: Nb39 (VHH)
VHH: QVQLVESGGGLVQAGGSLRLSCAASGRTFRFSAIDWYRQAPGQQREFVASISTSGRISYGHFVKGRFTISRDNAKNTMYLQMNSLKPEDTAVYYCHLAQPDVFGGGDYWGQGTQVTVSS
Q: For B6, which ELISA affinity is on record?
A: 1.49 nM

B7: Nb10 (VHH)
VHH: DVQLVESGGGLVQAGGSLKLSCTASESTFNFNHIDWYRQAPGKQRESVAVITNTDVTNYADSVKGRFTISRDNAKNTVYLQMNSLKPEDTAVYLCNAWRFGPTGVKVDYWGQGTQVTVSS
Q: Which ELISA affinity does the source give for B7 here?
A: 0.24 nM

B8: Nb76 (VHH)
VHH: DVQLVESGGGLVQAGGSLRLSCAVSGRTFSISTMGWFRQAPGKERLFVAGITWHDGSTNYADSVKGRFTISRDNAKNTVYLQMNSLKPEDTALYYCAARKSINYVQEYDYWGRGTQVTVSS
Q: Which ELISA affinity does the source give for B8 here?
A: 0.17 nM

B9: Nb55 (VHH)
VHH: DVQLVESGGGLVQAGGSLRLSCAASGRTFGSTMAWFRQAPGKERDFVAAITWSADRISYADSVKGRFTISRDNDKNIVHLQMNSLKPEDTAVYVCAARASSNTYDDPRSFAFWGQGTQVTVSS
Q: With B9 as the binder, how does the ELISA affinity read?
A: 2.24 nM

B10: Nb68 (VHH)
VHH: QVQLVESGGGLVQAGGSLRLSCAASGGTLRSYNMGWFRQGPGKEREFVAAISWTGLGTYYGDSVKGRFTISRDVIKNTLYLQMDSLKPEDTAIYYCAADSSTSRLHSAGSDYRYWGQGTQVTVSS
Q: For B10, which ELISA affinity is on record?
A: 6.11 nM

B11: Nb60 (VHH)
VHH: HVQLVESGGGLVQAGDSLRLSCAASERTNINYAMGWFRQAPGKERDFVAAIGWNGSIIKYAESVKGRFTISRDDAKNTVSLQMNSLKPEDTAVYYCAARIGSIANLQPREYEFAYWGQGTQVTVSS
Q: How did the ELISA affinity turn out when B11 was run?
A: 138 nM

B12: Nb58 (VHH)
VHH: QVQLVESGGGLVQAGGSLRLSCAASGRDFSSTVMGWFRQAPGKERELVAWMTVTYDITYYADSVKGRFTISKDNAKNTVYLQANSLKPDDTAVYYCASGALRVGSFSPDYWGQGTQVTVSS
Q: B12 was tested. Which ELISA affinity did it give?
A: 2.68 nM

B13: Nb12 (VHH)
VHH: HVQLVESGGGLVQAGGSLRLTCAASGGTFSTSTMDMGWFRQAPGKEREFVAVDSWNDGRAYYADSVKGRFTISRDSAKTTLYLQMNSLKPEDTAVYYCAARTERGVYDYWGRGTQVTVSS
Q: Which ELISA affinity does the source give for B13 here?
A: 539 nM

B14: Nb18 (VHH)
VHH: DVQLVESGGGLVQAGGSLRLSCAASGRTFSSYNVGWFRQAPGKEREFVAFIRWSGTSTYYADSVKGRFTISRDNAKNTVYLQMNSLKPEDTAVYYCAATSRTMIHTSQAMPINWDYWGQGTQVTVSS
Q: B14 was tested. Which ELISA affinity did it give?
A: 0.57 nM

B15: Nb100 (VHH)
VHH: EVQLVESGGGLVQAGGSLRLSCAASGLTFSSYNMGWFRQAPGKEREFVAFIRWSGTSTYYADSVKGRFTISRDTAKNTVYLQMNSLKLEDTAVYYCAATSRTMIHTSQTMRINWDYWGQGTQVTVSS
Q: Which ELISA affinity does the source give for B15 here?
A: 1.04 nM

B16: Nb84 (VHH)
VHH: DVQLVESGGGLVQAGGSLRLSCAASGRTFSSYSMGWFRQAPGKEREFVAFIRWSGTSTYYADSVKGRFTISRDNAKNTVYLQMNSLKPDDTAVYYCAASSRTMNTISQTMRINWDYWGQGTQVTVSS
Q: B16 was tested. Which ELISA affinity did it give?
A: 0.53 nM

B17: Nb92 (VHH)
VHH: HVQLVESGGGLVQAGGSLRLSCAASGRTFSAYGMGWFRQAPGKEREFVAGIARSGSEYYGDSVKGRFTISRDNAKNTVYLQMASLKAEDTGVYYCAADPTILYHALSQRTQNYRYWGPGTQVTVSS
Q: With B17 as the binder, how does the ELISA affinity read?
A: 4.92 nM

B18: Nb2 (VHH)
VHH: QVQLVESGGGLVQAGGSLRLSCAASGRTFSIYNMGWFRQAPGKEREFVIHMNWSNGNTATAASVKDRFTISRDNAKNTVYLQMSSLKPEDTAVYYCHATTNDYDYWGQGTQVTVSS
Q: B18 was tested. Which ELISA affinity did it give?
A: 4.82 nM

B19: Nb37 (VHH)
VHH: QVQLVESGGGLVQTGGSLRLSCAASGRTFSNYVMGWFRQAPGKEREFVSSIEWNSENTFYANSVKGRFTISRDNAKNTVYLQMNSLKAEDTAVYYCAADRGSSYYYTRASEYTYWGQGTQVTVSS
Q: With B19 as the binder, how does the ELISA affinity read?
A: 0.38 nM

B20: Nb74 (VHH)
VHH: HVQLVESGGGLVQAGGSLRLSCAASGRTFSSHAMAWFRQAPGKEREFVAGISWSGPYYVDSVKGRFTISTDNAKNTVYLQMNSLTPEDTAVYYCASSRGPNLYPHIGDVEYWGQGTQVTVSS
Q: B20 was tested. Which ELISA affinity did it give?
A: 67.1 nM

B21: Nb6 (VHH)
VHH: HVQLVESGGGLVQAGGSLRLSCAASGRTFSTHATGWFRQAPGKEREFLATSVWLDDISRDSTYYAESVKGRFSISRDNAKDTVYLQMNSLKPEDTAVYYCAVKQRVGPGIMSAPTYDYWGQGTQVTVSS
Q: For B21, which ELISA affinity is on record?
A: 0.57 nM

B22: Nb3 (VHH)
VHH: HVQLVESGGGLVQAGGSLRLSCVASGSGFEPNAMGWYRQAPGKQRELVAGITSGGNTNYADSVKGRFTISRDNVKNTVYLQMNSLKPEDTAVYYCNAVAPRINPRGSPTNYWGQGTQVTVSS
Q: For B22, which ELISA affinity is on record?
A: 0.48 nM

B23: Nb4 (VHH)
VHH: QVQLVESGGGLVQAGGSLRLSCVASGSGFEPNAMGWYRQAPGKQRELVAGITSGGNANYADSVKGRFTISRDNVKNTVYLQMNSLKPEDTAVYYCNAVGPRFNPRGSPTNYWGQGTQVTVSS
Q: B23 was tested. Which ELISA affinity did it give?
A: 0.67 nM

B24: Nb43 (VHH)
VHH: EVQLVESGGGLVQAGGSLRLTCAASGRTFSSSTMDMGWFRQAPGKEREFVAVDAWNDGRTYYADSVKGRFTISRDNAKNTLYLQMNSLKPEDTAIYYCNLRQGCSYNGCDEYWGQGTQVTVSS
Q: How did the ELISA affinity turn out when B24 was run?
A: 664 nM

B25: Nb46 (VHH)
VHH: QVQLVESGGGLVQAGGSLRLSCAVSGSTLGINAIGWYRQPPGKQRELVASISSLGTTLYAESVKGRFAISRDNAKNTGYLQMNSLKPDDTAVYYCNMRTPYMRDYWGQGTQVTVSS
Q: Which ELISA affinity does the source give for B25 here?
A: 25.9 nM

B26: Nb93 (VHH)
VHH: EVQLVESGGGLVQPGGSLRLSCAASGFTFSSYAMSWVRQAPGKGREWVAGITPGSGTFYADSVKGRFTISRDNAKNTLSLEINSLKPEDTALYYCAKCRQEFSWDFSSRDPDDFDYWGQGTQVTVSS
Q: Which ELISA affinity does the source give for B26 here?
A: 1.15 nM

B27: Nb91 (VHH)
VHH: HVQLVESGGGLVQPGGSLRLSCAASGLTLNDYAIGWFRQAPGKEREGVSCISSSDGTTYYADSVKGRFTISRDNAKNTVYLQMNSLKPEDTAVYYCATDIAPFYCSWPLRTRLVEYWGQGTQVTVSS
Q: B27 was tested. Which ELISA affinity did it give?
A: 1.28 nM

B28: Nb41 (VHH)
VHH: DVQLVESGGGLVQAGGSLRLSCAASGFTFSNYVMYWGRQAPGKGREWVSGIDSDGSDTAYASSVKGRFTISRDNAKKTLYLQMNDLKPEDTALYYCVKSKDRYGSPWTRSEFEDYWGQGTQVTVSS
Q: How did the ELISA affinity turn out when B28 was run?
A: 0.2 nM

B29: Nb24 (VHH)
VHH: QVQLVESGGGLVQAGGSLRLTCAASGGTFSTSTMDMGWFRQAPGKEREFVALDSWNGGRTYYADSVKGRFTISRDNAKNTLYLQMNSLKPEDTAVYYCAADTYSNYEKDDSWGYWGQGTQVTVSS
Q: How did the ELISA affinity turn out when B29 was run?
A: 0.77 nM

B30: Nb29 (VHH)
VHH: HVQLVESGGGLVQAGGSLRLTCAASGGTFSTSTMDMGWFRQAPGKEREFVAVDSWNDGRAYYADSVKGRFTISRDNAKNTLYLQMNSLKPEDTAVYYCAAETYSNYEKAYSWGYWGQGTQVTVSS
Q: Which ELISA affinity does the source give for B30 here?
A: 1.25 nM

B31: Nb26 (VHH)
VHH: HVQLVESGGGLVQAGGSLRLTCAASGRTFSISTMDMGWFRQAPGKEREFVAADAWNDGRTYYADSVKGRFTISRDNAKNTLYLQMNSLKPEDTAVYYCTADTYSNYKKDDSWGYWGQGTQVTVSS
Q: B31 was tested. Which ELISA affinity did it give?
A: 0.92 nM

B32: Nb32 (VHH)
VHH: DVQLVESGGGLVQAGGSLRLSCAASGRTFSSDTMDMGWFRQAPGKEREFVALHSWNGGKTYYADSVKGRFTISRDNAKNTLYLQMNNLKPEDTAVYYCAAETYTLYEKDSSWGYWGQGTQVTVSS
Q: Which ELISA affinity does the source give for B32 here?
A: 2.17 nM

B33: Nb80 (VHH)
VHH: HVQLVESGGGLVQPGGSLRLSCAASGNFFLINVMSWWRQAPGNEHELHELVATITSDGRTNYGDAVQGRFTISRDNAKNTLYLQMNSLKPEDTAVYYCYAQGQGNREYWGQGTQVTVSS
Q: Which ELISA affinity does the source give for B33 here?
A: 5.09 nM
